The record followed here is patent publication US20240117012A1 (KAO, published 2024).

In experiment [1] the target is T1, SARS-CoV-2 Nucleocapsid-Fc fusion protein (SARS-CoV-2, UniProt P0DTC9 1-419).
T1 construct: also called Fc-tagged N-protein
Put plainly: CoVHH-N2.

In experiment [2] the target is T1, SARS-CoV-2 Nucleocapsid-Fc fusion …. The experiment can be described thus: CoVHH-N1.
For experiment [3] the target is unchanged.

Like-named read-outs stand apart in the source and are kept apart here.

One may read the Kd as the constant that tells how readily two partners part at equilibrium. A high value points to lower affinity. As a reminder, the koff is the first-order rate constant of dissociation. Read a low koff as slow dissociation. A word on the kon: it is a measure of how fast the partners come together. A high value points to faster complex formation.

B1: His-tagged CoVHH-N2 (VHH)
VHH: EVQLVESGGGSVQAGGSLTLSCAASGFTFDDHAVGWFRQAPGKGLEWVSAISGDGYTTVYADSVKGRFTISRDNAKKTVYLQMNSLKAEDTAVYYCNAFRTDIVREYWGQGTQVTVSS
notes: also called CoVHH-N2 (His-tagged)
Consider B1, for which, in experiment [1], the Kd came out at 2.09 nM, the koff worked out at 0.0009 s⁻¹ and the kon was determined as 430000 M⁻¹ s⁻¹.

B2: His-tagged CoVHH-N1 (VHH)
VHH: EVQLVESGGAVVQPGGSLRLSCEASGFPFTKFWMYWVRRAPGKGLEWVAFIDTTGTITNYASSVKGRFTISRDDARNMVYLQMNDLRPEDTAIYYCATGPPGSTWVVDFHSWGQGTQVTVSS
notes: also called CoVHH-N1 (His-tagged)
Take B2: in experiment [2], the koff was determined as 0.0017 s⁻¹ and the kon amounted to 3.02e+06 M⁻¹ s⁻¹. The molecule also gave a Kd in experiment [3] of 0.564 nM.
